Measured values from patent publication US20050202025A1.

Molecular target: FbsA on cells of S. agalactiae O90R (Streptococcus agalactiae)
Assay: increasing fibrinogen on S. agalactiae O90R cells immobilised on microtiter wells; apparent KD from the concentration for half maximal binding

## human fibrinogen (from UniProt P02671 20-629; P02675 31-491; P02679 27-437) (ligand)
  Kd: 25 nM
